Laboratory results taken from EP2835135A2, “Means and methods for treating pseudomonas infection” (Max-Planck-Gesellschaft zur Förderung der Wissenschaften …, priority 2013, dated 2015).
Bridge positions count the residues as written; N and C are the ends. Square brackets hold non-standard residues; d marks the D form. Ends that are not written are not given here. S5 = C=CCCC[C@](C)(N)C(=O)O

What was measured:
[1] = target: T1, 14-3-3 (Homo sapiens, UniProt P63104); test: Fluorescence polarization (FP) assay: fluorescein-labeled peptides titrated with unlabeled 14-3-3 protein; format: binding; settings: three cross-link architectures (C8-linker), Figure 6B
T1 sequence (P63104 1-245): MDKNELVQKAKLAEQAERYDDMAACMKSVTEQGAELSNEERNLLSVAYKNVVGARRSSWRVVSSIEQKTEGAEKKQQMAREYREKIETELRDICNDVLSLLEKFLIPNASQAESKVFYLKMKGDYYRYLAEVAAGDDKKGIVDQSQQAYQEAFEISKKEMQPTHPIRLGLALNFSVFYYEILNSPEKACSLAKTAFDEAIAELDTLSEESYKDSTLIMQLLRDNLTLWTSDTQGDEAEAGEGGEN
From the text: A fluorescence polarization (FP) assay was used to determine the affinity of fluorescein-labeled truncated versions of this peptide to 14-3-3 (Table 1). […] The labeled peptides were titrated with unlabeled 14-3-3 protein.
The binding affinities were again determined using FP.
The binding affinity of the non-classic cross-linked peptides was investigated using FP (Figure 6C).

[2] = target: T1, 14-3-3; test: FP competition experiment: labeled peptide preincubated with 14-3-3 and titrated with unlabeled WT peptide; format: binding; settings: FITC-labeled peptide 20 nM, 14-3-3 4.0 µM, Figure 7
From the text: The figures show: • Figure 1: (A) Schemetic representaion of ExoS' role in P. aeruginosa infection. (B) Crystal structure of 14-3-3 binding domain of ExoS bound to 14-3-3 (PDB 2002). • Figure 2: (A) Concept for an antibiotic strategy against P. aeruginosa. (B) Overlaid structures of 14-3-3 in complex with 14-3-3 binding domains of ExoS (PDB 2002) and endogenous phosphorylated sequences (PDB 1QJA, 1YWT, 2B05, 2BR9, 2BTP, 2C1J, 2C1N, 2C63, 2C74, 2NPM, 2IQV, 3LW1). • Figure 3: Alignment of 14-3-3 residues involved in inhibitor binding. • Figure 4: Dual assay for the identification of inhibitors of 14-3-3/ExoS interaction that would not affect interactions of 14-3-3 with endogenous binding parterns. L^1 and L^2 as well as L^3 and L^4 are chosen in order to allow a fluorescence polarization readout, ALPHA screen ("Amplified Luminescent Proximity Homogeneous Assay") or HRTF screen ("homogeneous time resolved fluorescence"; both ALPHA and HRTF screens are very sensitive homogeneous assay technologies that allow the screening of interactions in a proximity sensitive fashion). • Figure 5: (A) Crystal structure of ^420[…]^430 (sticks) complexed to 14-3-3 ζ ΔC (spacefill). The 2FC - F0 density is scaled to 1σ (grid). (B) Superimposition of truncated ExoS peptide (^420[…]^430) with the previously reported ExoS peptide (^416[…]^430, PDB 2002). […]

Row | Compound | affinity for 14-3-3 compared to the starting sequence (WT) [1] | displacement of the labeled peptide by unlabeled WT peptide [2]
1 | α cross-linked peptide: ExoS 11-mer with α cross-link (i,i+4): residues Leu426 and Leu422 replaced with S5, C8-linker (QG[S5]LDA[S5]DLAS; staple 3-7) | significantly decreased binding affinity | 
2 | γ cross-linked peptide: ExoS 11-mer with γ cross-link (i,i+3) at positions Leu426 and Leu423 (R5 and S5, respectively), C8-linker (QGLXDAXDLAS; non-natural residues) | significantly decreased binding affinity | 
3 | CC(C)C[C@H](NC(=O)CNC(=O)[C@@H](N)CCC(N)=O)C(=O)N[C@@H](CC(C)C)C(=O)N[C@@H](CC(=O)O)C(=O)N[C@@H](C)C(=O)N[C@@H](CC(C)C)C(=O)N[C@@H](CC(=O)O)C(=O)N[C@@H](CC(C)C)C(=O)N[C@@H](C)C(=O)N[C@@H](CO)C(=O)O |  | displacement by unlabeled WT peptide
